Where a chain is given by its changes, count along the chain named.

The labels stand for the following.
T1: coreROQ (Roquin, murine/human) (Mus musculus, UniProt Q4VGL6 171-326)
T1 sequence: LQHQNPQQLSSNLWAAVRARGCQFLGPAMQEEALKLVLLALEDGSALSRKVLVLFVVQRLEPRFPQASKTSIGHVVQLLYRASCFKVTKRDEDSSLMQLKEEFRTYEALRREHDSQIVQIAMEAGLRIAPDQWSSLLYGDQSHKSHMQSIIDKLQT

T2: extROQ (Roquin, murine/human) (Mus musculus, UniProt Q4VGL6 89-404)
T2 sequence: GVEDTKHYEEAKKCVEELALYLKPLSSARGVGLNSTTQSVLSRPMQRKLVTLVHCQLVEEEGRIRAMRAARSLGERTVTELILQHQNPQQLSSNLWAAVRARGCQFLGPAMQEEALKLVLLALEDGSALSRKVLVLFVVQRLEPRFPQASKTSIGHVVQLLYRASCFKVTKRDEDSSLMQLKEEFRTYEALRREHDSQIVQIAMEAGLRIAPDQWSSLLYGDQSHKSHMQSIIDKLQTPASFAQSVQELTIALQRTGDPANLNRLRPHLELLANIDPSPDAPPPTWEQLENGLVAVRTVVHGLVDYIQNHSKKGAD

B1: DK (dolphin/killer whale Ox40 ADE) (structured_RNA)
RNA: GCCCUGUGCCGUUUUAGGCGCUCCUGGGC
B2: EL (elephant Ox40 ADE) (structured_RNA)
RNA: GUCCCCUCUGCGCCGUUUUAGGCGUUUCUGGGCUGGC
B3: delta-bulge (structured_RNA)
RNA: GCCUGCCAGUCCACACCGUUCUAGGUGCUGGGCUGGCUCUGGGC
B4: HS (human Ox40 ADE wt) (structured_RNA)
RNA: GGCCAACUCUGCACCGUUCUAGGUGCCGAUGGCU
B5: HS low pur. (structured_RNA)
RNA: GGCGAACAGUGCAGCGUUCUAGCUGCCCUUCGCU
B6: dstem1 (structured_RNA)
RNA: GCCUGUAAGUACCCUCCACACCGUUCUAGGUGCUGGGCUUACUCUGGGC
B7: MM (murine Ox40 ADE wt) (structured_RNA)
RNA: B6 RNA with U6C, A7C, U40G, A41G
B8: dstem2 (structured_RNA)
RNA: B6 RNA with C17U, G35A
B9: MM 3'bulge (structured_RNA)
RNA: GCCUGCCAGUCCACACCGUUCUAGGUGCUGGACCCUGCUGGCUCUGGGC
B10: HE (hedgehog Ox40 ADE) (structured_RNA)
RNA: GCACCCUCCCACACCGUUUUAGGUGUUCUGGGUG
B11: HS 3'bulge (structured_RNA)
RNA: GGCCAUCUGCACCGUUCUAGGUGCCGAACUGGCU
B12: dapical (structured_RNA)
RNA: GCCUGCCAGUACCCUCCAUAAAGUUCUAUUUACUGGGCUGGCUCUGGGC
B13: LI (lizard putative ADE) (structured_RNA)
RNA: GGUGUGUUUAUUUCAGGAGACA
B14: CH (chicken putative ADE) (structured_RNA)
RNA: GCCGAGCCUGAGUUUAUACAGUCCUUUGUGC
B15: OP (opossum ADE-like) (structured_RNA)
RNA: GGCCAGGACGCAGUAUUACUCUCGGGUC

In one data set the target is T1, coreROQ (Roquin, murine/human). Description: EMSA. For orientation: A gel shift assay detects complexes by their altered migration in electrophoresis.
By Kd is commonly meant a measure of binding affinity in units of concentration. In turn, B1 had a Kd of 480 ± 24.7 nM. Same read-out and setting: in the case of B2 it was 534 ± 366 nM; in that of B3, 299 ± 41.6 nM.

In turn, B4 gave a Kd of 295 ± 29.6 nM. The same measure, in the same setting: next, B5: 432 ± 62.6 nM. B6 had a Kd of 381 ± 94.8 nM. For B7, binding was put at a Kd of 308 ± 57.2 nM. Still for that read-out and setting: next, B8: 451 ± 46.9 nM; B9: 241 ± 15.6 nM; B10: 318 ± 17.2 nM. On the same count and under the same terms, next, B11: 293 ± 149 nM.

The target of another data set is T2, extROQ (Roquin, murine/human). Description: EMSA.
B1 had a Kd of 847 ± 77.4 nM. Take B2: binding was put at a Kd of 778 ± 157 nM. Consider B3, for which the Kd turned out to be 479 ± 188 nM. The same measure, in the same setting: in the case of B12 it was 488 ± 373 nM. Still for that read-out and setting: in the case of B4 it was 386 ± 63.7 nM.

B13 registered a dissociation constant Kd of 1840 ± 403 nM. For the molecule B5, the equilibrium dissociation constant (Kd) was determined as 673 ± 65.2 nM. The same measure, in the same setting: in the case of B6 it was 1040 ± 139 nM; in that of B7, 323 ± 139 nM. B8: the dissociation constant Kd was 978 ± 76.9 nM.

For the molecule B9, the equilibrium dissociation constant (Kd) was 525 ± 60.1 nM. Compared with the last molecule, the Kd is about 1.9-fold lower.

On to B10, for which binding was put at a Kd of 642 ± 119 nM.

Regarding B14, the equilibrium dissociation constant (Kd) stood at 4460 ± 717 nM. Still for that read-out and setting: next, B11: 475 ± 62.6 nM.

The next data set has as its target T1, coreROQ (Roquin, murine/human). The data set can be described thus: EMSA. The source holds these as a separate data set.
For B15, the binding result is on record as “no binding”. As for B12, the binding result is “no binding”.

The record behind these values is article PMC11730611.
